First the molecules themselves.
B1: Bacteriorhodopsin, P02945 (parent)
chain: MLELLPTAVEGVSQAQITGRPEWIWLALGTALMGLGTLYFLVKGMGVSDPDAKKFYAITTLVPAIAFTMYLSMLLGYGLTMVPFGGEQNPIYWARYADWLFTTPLLLLDLALLVDADQGTILALVGADGIMIGTGLVGALTKVYSYRFVWWAISTAAMLYILYVLFFGFTSKAESMRPEVASTFKVLRNVTVVLWSAYPVVWLIGSEGAGIVPLNIETLLFMVLDVSAKVGFGLILLRSRAIFGEAEAPEPSAGDGAAATSD

Several values for one entry are separate records, joined by “and”; a condition that tells them apart may be missing. Identical values can stand only once.

The first data set covers variants of B1. To be noted: Halobacterium salinarum (strain ATCC 700922 / JCM 11081 / NRC-1); pH 3.5; Thermal; DSC; structure 1C3W; whole UniProt chain shown.
As for MLELLPTAVEGVSQAQITGRPQWIWLALGTALMGLGTLYFLVKGMGVSDPDAKKFYAITTLVPAIAFTMYLSMLLGYGLTMVPFGGEQNPIYWARYADWLFTTPLLLLDLALLVDADQGTILALVGADGIMIGTGLVGALTKVYSYRFVWWAISTAAMLYILYVLFFGFTSKAESMRPEVASTFKVLRNVTVVLWSAYPVVWLIGSQGAGIVPLNIQTLLFMVLDVSAKVGFGLILLRSRAIFGEAEAPEPSAGDGAAATSD [E22Q E207Q E217Q], the Tm was 69.4 °C and the “change of melting temperature, mutant - wild type (higher = more stable)” value (shortened to “change of melting temperature, mutant”) was -7.2 °C.

Still in this data set, the particulars now being: Halobacterium salinarum (strain ATCC 700922 / JCM 11081 / NRC-1); pH 4; Thermal; UV spectroscopy; transition: 2; structure 1C3W; whole UniProt chain shown.
For the variant MLELLPTAVEGVSQAQITGRPQWIWLALGTALMGLGTLYFLVKGMGVSDPDAKKFYAITTLVPAIAFTMYLSMLLGYGLTMVPFGGEQNPIYWARYADWLFTTPLLLLDLALLVDADQGTILALVGADGIMIGTGLVGALTKVYSYRFVWWAISTAAMLYILYVLFFGFTSKAESMRPEVASTFKVLRNVTVVLWSAYPVVWLIGSQGAGIVPLNIQTLLFMVLDVSAKVGFGLILLRSRAIFGEAEAPEPSAGDGAAATSD [E22Q E207Q E217Q], the Tm was 60.1 °C and 64.1 °C; the “change of melting temperature, mutant” value is -5.1 °C.

The data set is the same for the next values; noted with them: Halobacterium salinarum (strain ATCC 700922 / JCM 11081 / NRC-1); pH 7; Thermal; DSC; structure 1C3W; whole UniProt chain shown.
MLELLPTAVEGVSQAQITGRPQWIWLALGTALMGLGTLYFLVKGMGVSDPDAKKFYAITTLVPAIAFTMYLSMLLGYGLTMVPFGGEQNPIYWARYADWLFTTPLLLLDLALLVDADQGTILALVGADGIMIGTGLVGALTKVYSYRFVWWAISTAAMLYILYVLFFGFTSKAESMRPEVASTFKVLRNVTVVLWSAYPVVWLIGSQGAGIVPLNIQTLLFMVLDVSAKVGFGLILLRSRAIFGEAEAPEPSAGDGAAATSD [E22Q E207Q E217Q]: the Tm is 93.3 °C and the “change of melting temperature, mutant” value was -4.9 °C.

The data set is the same for the next values; noted with them: Halobacterium salinarum (strain ATCC 700922 / JCM 11081 / NRC-1); pH 7; Thermal; UV spectroscopy; transition: 2; structure 1C3W; whole UniProt chain shown.
Regarding MLELLPTAVEGVSQAQITGRPQWIWLALGTALMGLGTLYFLVKGMGVSDPDAKKFYAITTLVPAIAFTMYLSMLLGYGLTMVPFGGEQNPIYWARYADWLFTTPLLLLDLALLVDADQGTILALVGADGIMIGTGLVGALTKVYSYRFVWWAISTAAMLYILYVLFFGFTSKAESMRPEVASTFKVLRNVTVVLWSAYPVVWLIGSQGAGIVPLNIQTLLFMVLDVSAKVGFGLILLRSRAIFGEAEAPEPSAGDGAAATSD [E22Q E207Q E217Q], the “change of melting temperature, mutant” value was -0.4 °C.

The data set is the same for the next values; noted with them: Halobacterium salinarum (strain ATCC 700922 / JCM 11081 / NRC-1); pH 9; Thermal; DSC; structure 1C3W; whole UniProt chain shown.
MLELLPTAVEGVSQAQITGRPQWIWLALGTALMGLGTLYFLVKGMGVSDPDAKKFYAITTLVPAIAFTMYLSMLLGYGLTMVPFGGEQNPIYWARYADWLFTTPLLLLDLALLVDADQGTILALVGADGIMIGTGLVGALTKVYSYRFVWWAISTAAMLYILYVLFFGFTSKAESMRPEVASTFKVLRNVTVVLWSAYPVVWLIGSQGAGIVPLNIQTLLFMVLDVSAKVGFGLILLRSRAIFGEAEAPEPSAGDGAAATSD [E22Q E207Q E217Q]: the Tm came to 82.6 °C and the “change of melting temperature, mutant” value was -11.9 °C.

The same data set, now with this note: Halobacterium salinarum (strain ATCC 700922 / JCM 11081 / NRC-1); pH 9.5; Thermal; UV spectroscopy; glycine buffer; transition: 2; structure 1C3W; whole UniProt chain shown.
On to MLELLPTAVEGVSQAQITGRPQWIWLALGTALMGLGTLYFLVKGMGVSDPDAKKFYAITTLVPAIAFTMYLSMLLGYGLTMVPFGGEQNPIYWARYADWLFTTPLLLLDLALLVDADQGTILALVGADGIMIGTGLVGALTKVYSYRFVWWAISTAAMLYILYVLFFGFTSKAESMRPEVASTFKVLRNVTVVLWSAYPVVWLIGSQGAGIVPLNIQTLLFMVLDVSAKVGFGLILLRSRAIFGEAEAPEPSAGDGAAATSD [E22Q E207Q E217Q], for which the “change of melting temperature, mutant” value amounted to 0 °C.

Source of the values: FireProtDB (doi:10.1111/febs.12694).
